Laboratory results as given in publication PMC3788760.

Tests used:
[1] = target: a-domain of human PDI (human); experiment: ITC; 25.0°C; VP-ITC; 200 µM Tau244–372 (or 40 µM full-length Tau) in the syringe injected into 8.1 µM PDI or fragment (or 3.24 µM PDI) in the cell; 10 mM HEPES pH 7.4, 100 mM NaCl, no DTT; single set of identical sites model
[2] = target: full-length human protein disulfide isomerase (PDI) (human) (UniProt P07237); experiment: as above
[3] = target: human PDI fragment abb’xa’ (human); experiment: as above
[4] = target: a-domain of human PDI (human); experiment: ITC; 37.0°C; VP-ITC; 200 µM Tau244–372 in the syringe injected into 8.1 µM full-length PDI or domain a in the cell; 10 mM HEPES pH 7.4, 100 mM NaCl, no DTT; single set of identical sites model
[5] = target: full-length human protein disulfide isomerase (PDI) (human) (UniProt P07237); experiment: as above
[6] = target: a-domain of human PDI (human)
[7] = target: full-length human protein disulfide isomerase (PDI) (human) (UniProt P07237)
[8] = target: human PDI fragment abb’xa’ (human)

human Tau fragment Tau244–372, sequence (P10636 561-689): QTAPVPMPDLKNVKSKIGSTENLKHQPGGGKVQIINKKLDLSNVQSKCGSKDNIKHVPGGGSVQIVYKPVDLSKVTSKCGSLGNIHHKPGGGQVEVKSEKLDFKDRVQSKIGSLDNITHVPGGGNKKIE

- Kd [1]: 0.48 µM
- dH [1]: -4 kcal/mol
- stoichiometry N [1]: 0.489
- Kd [2]: 3.46 µM
- dH [2]: -8.6 kcal/mol
- stoichiometry N [2]: 0.8
- Kd [3]: 7.35 µM
- dH [3]: -5.9 kcal/mol
- stoichiometry N [3]: 0.97
- Kd [4]: 1.34 µM
- dH [4]: -4.34 kcal/mol
- stoichiometry N [4]: 0.56
- Kd [5]: 4.83 µM
- dH [5]: -9.27 kcal/mol
- stoichiometry N [5]: 1.02
- lag time of Tau244–372 fibrillization (ThT, 37°C), 0–20 µM domain a (184 min without PDI); value at 20 µM [6]: 253 min
- rate constant k for the growth of Tau244–372 fibrils (ThT), 0–20 µM domain a (falls from 36.7 without PDI); value at 20 µM [6]: 0.0176 min⁻¹
- t m of Tau244–372 fibrillization (ThT), 0–20 µM domain a (238.3 min without PDI); value at 20 µM [6]: 366 min
- lag time of Tau244–372 fibrillization (ThT) with 100 g/l Ficoll 70, 20 µM full-length PDI (∼0 without PDI) [7]: 44.8 min
- lag time of Tau244–372 fibrillization (ThT, 37°C, 10 µM Tau244–372, heparin, 1 mM DTT), 0–20 µM full-length PDI (184 min without PDI); value at 20 µM [7]: 242 min
- rate constant k for the growth of Tau244–372 fibrils (ThT) with 100 g/l Ficoll 70, 20 µM full-length PDI (54.9 without PDI) [7]: 0.0314 min⁻¹
- rate constant k for the growth of Tau244–372 fibrils (ThT), 0–20 µM full-length PDI (falls from 36.7 without PDI); value at 20 µM [7]: 0.0224 min⁻¹
- t m (time to 50% of maximal ThT fluorescence) of Tau244–372 fibrillization, 0–20 µM full-length PDI (238.3 min without PDI); value at 20 µM [7]: 331 min
- t m of Tau244–372 fibrillization (ThT) with 100 g/l Ficoll 70, 20 µM full-length PDI (11.6 min without PDI) [7]: 108 min
- lag time of Tau244–372 fibrillization (ThT, 37°C), 0–20 µM abb’xa’ (184 min without PDI); value at 20 µM [8]: 247 min
- rate constant k for the growth of Tau244–372 fibrils (ThT), 0–20 µM abb’xa’ (falls from 36.7 without PDI); value at 20 µM [8]: 0.0233 min⁻¹
- t m of Tau244–372 fibrillization (ThT), 0–20 µM abb’xa’ (238.3 min without PDI); value at 20 µM [8]: 333 min
Substance: human Tau fragment Tau244–372 (from UniProt P10636-8 244-372) (domain or fragment)
